Reference: patent publication US20230331836A1 (SUZHOU TRANSCENTA THERAPEUTICS, published 2023)
Where a chain is given by its changes, count along the chain named. Each block holds one binder with its values, some of them ahead of it.

How the values were obtained:
human CLDN18.1 [1] = target: T1, human CLDN18.1 (human, UniProt P56856 1-261); assay: ICC on FFPE HEK293-CLDN18.1 cell block sections; clone 69H2F7E6; '-' = negative staining
T1 construct: also called hCLDN18.1
T1 sequence: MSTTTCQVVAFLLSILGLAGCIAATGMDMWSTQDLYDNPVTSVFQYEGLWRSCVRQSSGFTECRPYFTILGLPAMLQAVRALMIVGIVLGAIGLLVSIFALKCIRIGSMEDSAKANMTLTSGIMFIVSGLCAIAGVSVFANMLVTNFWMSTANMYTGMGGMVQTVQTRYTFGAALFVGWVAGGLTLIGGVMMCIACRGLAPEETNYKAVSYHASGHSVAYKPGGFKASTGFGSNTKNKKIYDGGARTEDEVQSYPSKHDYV

[2] = target: T2, hCLDN18.2 peptide (amino acid residues 28-37 of hCLDN18.2) (human); assay: ELISA: hCLDN18.2 peptide (aa 28-37) coated on the plate at 1 ug/ml, antibody dilution series up to 150 ng/mL, detection with goat anti-mouse IgG-HRP, OD450-OD620
T2 construct: Synthesised by Sangon Biotech; coated on ELISA plates; also called antigen peptide; hCLDN18.2 Peptide (aa28-37)
T2 peptide: DQWSTQDLYN
Description: (§1) 1 μg/ml of peptide ([…]) was coated onto the high-binding clear polystyrene 96 well plates and blocked with blocking buffer. Serial diluted antibodies (from 150 to 0.0732 ng/ml) in blocking buffer were then added and incubated for 1.5 hrs at room temperature. The plate was washed 6 times using washing buffer and then 100 μl/well Goat pAb to Ms IgG(HRP) was added for incubation at room temperature for 1.5 hr. After washing with washing buffer, TMB was added to react with HRP on the plate. Then OD450 nm of the plate was read by SpectraMax i3x (Molecular Devices). 14G11G2D2 and 69H2F7E6 can specifically bind with the peptide with high affinity while GC182 can not recognize the epitope in the linear peptide. (FIG. 3)

[3] = target: T3, Human recombinant CLDN18.2 (N-6His) variant (human); assay: BLI (ForteBio Octet RED 96): His-tagged recombinant hCLDN18.2 variant loaded on Ni-NTA biosensors, antibody in solution at 50 nM and 25 nM
T3 construct: Bought fusion polypeptide; also called recombinant hCLDN18.2 variant protein; Novoprotein NC101
T3 chain: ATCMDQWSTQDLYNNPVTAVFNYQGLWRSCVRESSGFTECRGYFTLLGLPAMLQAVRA
Description: (§2) 100 nM human recombinant CLDN18.2 (N-6His) (Novoprotein, NC101) protein in 1×Kinetics Buffer ((PBS+0.1% BSA+0.02% Tween20) were loaded onto pre-wet Ni-NTA biosensors (PALL, 18-5101) for 200s. After equilibrated in 1×Kinetics Buffer as baseline (60s), the sensor was immersed into serial diluted antibodies (50 nM, 25 nM) with 1×Kinetics Buffer respectively and incubated for 200s to determine the association (kon), followed by dissociation in 1×Kinetics Buffer for 200s (koff). The biosensors are regenerated for 5s in Regeneration Buffer, followed by neutralization for 5s in Neutralization Buffer for 3 times. All procedure were performed at 30° C. with Octet RED 96 (PALL). The binding affinity KD was calculated and analyzed using the ratio of koff to kon. (FIG. 6).

[4] = target: T3, Human recombinant CLDN18.2 (N-6His) …; assay: ELISA on coated recombinant CLDN18.2 (N-6His) variant (1 µg/ml)
Description: 1 μg/ml of human recombinant CLDN18.2 (N-6His) variant or human recombinant CLDN18.1 (N-8His) variant (100 μL/well) was coated onto the high-binding clear polystyrene 96 well plates and blocked with blocking buffer. Serial diluted antibodies (from 100 to 0.0244 ng/ml) in blocking buffer were added and incubated for 1.5 hrs at room temperature. The plate was washed 6 times using washing buffer (PBS+0.1% Tween) washer and then 100 μl/well Goat pAb to Ms IgG (HRP) was added for incubation at RT for 1.5 hr. After washing with washing buffer, TMB was added to react with RP on the plate. Then OD450 nm of the plate was read by SpectraMax i3x (Molecular Devices).

[5] = target: T3, Human recombinant CLDN18.2 (N-6His) …; assay: BLI (ForteBio Octet RED 96), His-tagged antigen on Ni-NTA sensors, antibody 50 and 25 nM in solution, 30 C
Description: as §2

human CLDN18.1 [6] = target: T1, human CLDN18.1; assay: ICC on FFPE HEK293-CLDN18.1 cell block sections; clone 14G11F5E1; '-' = negative staining
[7] = target: T2, hCLDN18.2 peptide (amino acid residues …); assay: ELISA on coated peptide
Description: as §1

binding result (human CLDN18.1 [1]): no binding (tested: 1 nM) | EC50 [2]: 0.0143 µg/mL | koff [3]: 0.000695 s⁻¹ | kon [3]: 471000 M⁻¹ s⁻¹ | EC50 [4]: 0.0139 µg/mL | Kd [5]: 1.48 nM
B1: 69H2 (antibody, mouse IgG1, kappa, V domains shown)
VH: QVQLQQSGPELMKPGASLQISCKASGYFFTTYYIHWVKQRPGQGLEWIGWIYPRGGNTVYNEKFKGKATLTSDTSSSTAYMQLSSLTSEDSAVYYCAINYRSTFGYWGQGTLVTVSA
VL: DVLMTQTPLSLPVSLGDQASISCRSSQNIVHSNGNTYLEWYLQKPGQSPKLLIYKISNRFSGVPDRFSGSGSGTDFTLKISRVEAEDLGVYYCFQGSHVPFTFGSGTKLEIKR
notes: Mouse antibody; the recombinant form is VH/VL fused to mouse IgG1 / kappa constant regions; also called 69H2F7E6; 69H2D3B1

EC50 [2]: 0.027 µg/mL | koff [3]: 0.000111 s⁻¹ | kon [3]: 522000 M⁻¹ s⁻¹ | EC50 [4]: 0.0127 µg/mL | Kd [5]: 0.213 nM | binding result (human CLDN18.1 [6]): no binding (tested: 0.5 nM)
B2: 14G11 (antibody, mouse IgG1, kappa, V domains shown)
VH: QVQLQQSGPELVRPGASVKISCKASGYRFTRNYFHWVKQRPGQGLEWIGWIYPGGFDIEYSEKFKGKATLTTDTSSSTAYMLLTSLTSEDSAVYYCAINYGSTFGYWGQGTLVTVSV
VL: B1 VL with K44R, I56V, S81N
notes: Mouse antibody; the recombinant form is VH/VL fused to mouse IgG1 / kappa constant regions; also called 14G11G2D2; 14G11A4E1

B3: GC182 (antibody, V domains shown)
VH: QIQLVQSGPELKKFGETVKISCKASGYTFTDYSIHWVKQAPGKGLKWMGWINTETGVPTYADDFKGRFAFSLETSASTAYLQINNLKNEDTATYFCARRTGFDYWGQGTTLTVSS
VL: DIVMTQAAFSIPVTLGTSASISCRSSKNLLHSDGITYLYWYLQRPGQSPQLLIYRVSNLASGVPNRFSGSESGTDFTLRISRVEAEDVGVYYCVQVLELPFTFGGGTKLEIK
notes: also called anti-CLDN18.2 antibody GC182
binding result [7]: no binding (tested: 150 ng/ml (highest concentration tested))
